Results reported in PMC11677724, “Preclinical Study of a Dual-Target Molecular Probe Labeled with ^68Ga Targeting SSTR2 and FAP” (Pharmaceuticals, 2024).
Where two headings read alike, the source gives them in different places.

Key:
[1] = Partition coefficient (log P), n-octanol/PBS; type: physicochemical; settings: shake-flask n-octanol/PBS (0.1 mol/L, pH 7.4), 14.8 MBq in 100 µL, vortexed 2 min at room temperature, centrifuged 3000 rpm 5 min, γ-counter CPM; mean ± SD, repeated three times; read-out: Log p
Protocol: In a 15 mL centrifuge tube, 2.9 mL of PBS (0.1 mol/L, pH = 7.4) and 3 mL of n-octanol were added. [^68Ga]Ga-TATE-46, [^68Ga]Ga-DOTA-TATE, or [^68Ga]Ga-FAPI-46 (14.8 MBq, 100 µL) were added to each tube. The mixture was vortexed at room temperature for 2 min to ensure thorough blending, and then centrifuged at room temperature (effective centrifuge radius 12 cm, 3000 rpm) for 5 min. After allowing sufficient time for phase separation, three 500 µL samples were taken from each layer. The radioactivity of each sample was measured using a γ-counter (count per minute, CPM), and log p = log (n-octanol CPM/water CPM) was calculated. The experiment was repeated three times.

[2] = Ex vivo biodistribution in NCI-H727 tumor-bearing mice; settings: female, BALB/c nude, mouse, in vivo, 1.48 MBq, total radioactivity, γ-counter, mean ± SD, n=3; for tissue uptake at 0.5 h: 0.5 h p.i.; for tissue uptake at 1 h: 1 h p.i.; for tissue uptake at 2 h: 2 h p.i.; for tissue uptake at 4 h: 4 h p.i.
Protocol: (§1) Female BALB/c nude mice were obtained from Charles River Laboratories (Beijing, China). […] Approximately 5 × 10^6 cells were implanted into the right shoulder of each mouse to establish an NCI-H727 tumor model and Mc38 tumor model. Once the tumor volume reached 200–300 mm^3, the mice were used for imaging or biodistribution studies. All animal experiments were carried out in accordance with the National Institutes of Health Guidelines for the Care and Use of Laboratory Animals and were approved by the Animal Protection and Utilization Committee of the General Hospital of the PLA (Approval No.: S2023-209-1).
The NCI-H727 tumor-bearing mice were randomly assigned to four groups (with three mice in each group) and were injected with [^68Ga]Ga-TATE-46 (1.48 MBq, 100 µL). The mice were put to death at 0.5, 1, 2, and 4 h post-injection (p.i.). The tissues and organs of concern were gathered, weighed, and measured for radioactivity using a γ-counter. Additionally, [^68Ga]Ga-DOTA-TATE and [^68Ga]Ga-FAPI-46 were used as control groups in the biodistribution study of the NCI-H727 tumor model at 1 h p.i. After performing time decay correction, the radiotracer uptake in each tissue and organ was calculated as %ID/g.

[3] = Micro PET imaging with ROI quantification, MC38 tumor-bearing mice; type: in vivo; settings: female, BALB/c nude, mouse, iv, total radioactivity, 1 h p.i., 5.55–7.4 MBq tail vein, MC38 tumors (SSTR2/FAP, negative), read-out: uptake in MC38 tumors (ROI quantitative analysis of PET images)
Protocol: as §1
Each set of NCI-H727 tumor xenograft models (n = 3) was administered with [^68Ga]Ga-TATE-46, [^68Ga]Ga-DOTA-TATE, or [^68Ga]Ga-FAPI-46 (5.55–7.4 MBq, 150 µL/mouse) through the tail vein. Static PET scans were performed at 30 min, 1 h, 2 h, and 4 h after injection for 10 min each. In blocking studies, unlabeled precursors (FAPI-46, DOTA-TATE, FAPI-46 + DOTA-TATE, 10 mg/kg) were co-injected with [^68Ga]Ga-TATE-46. After image acquisition, the images were reconstructed using the three-dimensional ordered subset expectation maximization (3D-OSEM) algorithm and analyzed on the Recon/Avator-s-10 workstation. The percentage of injected dose per gram of tissue (%ID/g) was determined by delineating regions of interest.

[4] = system: MC38 cells (SSTR2/FAP, negative); assay: Cell uptake in MC38 cells (negative control); type: cell-based; settings: 1.48×10^4 Bq/well, all time points, all p < 0.001
Protocol: The NCI-H727 and Mc38 cell lines were supplied by the Stem Cell Bank of the Chinese Academy of Sciences and were cultivated in Roswell Park Memorial Institute (RPMI-1640) medium with 10% (v/v) fetal bovine serum (FBS) at 37 °C with 5% CO2. All cells were cultured until they reached 80–90% confluence before undergoing trypsinization.
In blocking experiments, an excessive amount of unlabeled FAPI-46, DOTA-TATE, or FAPI-46 + DOTA-TATE (10 µg/well) was added as an inhibitor along with [^68Ga]Ga-TATE-46 to the cells. After 1 h, the cells were processed using the same method. Finally, the cell lysates were gathered, and the radioactivity was measured using a γ-counter. Mc38 cells were used as a negative control, with only [^68Ga]Ga-TATE-46 (1.48 × 10^4 Bq/well, 100 µL) added, and the rest of the procedure was followed as described above.

[5] = NCI-H727 tumor, read-out: Biodistribution, Tumor (tumor uptake)
[6] = NCI-H727 tumor-bearing mice, read-out: Biodistribution, Blood
[7] = NCI-H727 tumor-bearing mice, read-out: Biodistribution, Bone
[8] = NCI-H727 tumor-bearing mice, read-out: Biodistribution, Brain
[9] = NCI-H727 tumor-bearing mice, read-out: Biodistribution, Heart
[10] = NCI-H727 tumor-bearing mice, read-out: Biodistribution, Intestine
[11] = NCI-H727 tumor-bearing mice, read-out: Biodistribution, Kidney
[12] = NCI-H727 tumor-bearing mice, read-out: Biodistribution, Liver
[13] = NCI-H727 tumor-bearing mice, read-out: Biodistribution, Lung
[14] = NCI-H727 tumor-bearing mice, read-out: Biodistribution, Muscle
[15] = NCI-H727 tumor-bearing mice, read-out: Biodistribution, Spleen
[16] = NCI-H727 tumor-bearing mice, read-out: Biodistribution, Stomach

## C[C@@H](O)[C@H](NC(=O)[C@@H]1CSSC[C@H](NC(=O)[C@@H](Cc2ccccc2)NC(=O)CCCCCNC(=O)CCCCCNC(=O)[C@H](Cc2ccccc2)NC(=O)C(CCC(=O)N[C@@H](Cc2ccccc2)C(=O)NCCCCCC(=O)NCCCCCC(=O)N2CCN(CCCN(C)c3ccc4nccc(C(=O)NCC(=O)N5CC(F)(F)C[C@H]5C#N)c4c3)CC2)NC(=O)CN2CCN(CC(=O)O)CCN(CC(=O)O)CCN(CC(=O)O)CC2)C(=O)N[C@@H](Cc2ccc(O)cc2)C(=O)N[C@H](Cc2c[nH]c3ccccc23)C(=O)N[C@@H](CCCCN)C(=O)N[C@@H]([C@@H](C)O)C(=O)N1)C(=O)O (stereo partly drawn) [[^68Ga]Ga-TATE-46, metal not drawn]
[1]
  logD: -0.2 ± 0.05
[2]; [5]
  tissue uptake at 0.5 h: 3.56 ± 0.69 %ID/g
  tissue uptake at 1 h: 7.53 ± 1.13 %ID/g
  tissue uptake at 2 h: 7.08 ± 0.88 %ID/g
  tissue uptake at 4 h: 6.48 ± 1.82 %ID/g
[2]; [6]
  tissue uptake at 0.5 h: 13.5 ± 2.03 %ID/g
  tissue uptake at 1 h: 11.3 ± 2.53 %ID/g
  tissue uptake at 2 h: 6.13 ± 0.61 %ID/g
  tissue uptake at 4 h: 4.09 ± 0.21 %ID/g
[2]; [7]
  tissue uptake at 0.5 h: 4.84 ± 0.25 %ID/g
  tissue uptake at 1 h: 4.8 ± 1.08 %ID/g
  tissue uptake at 2 h: 4.65 ± 0.87 %ID/g
  tissue uptake at 4 h: 4.49 ± 0.06 %ID/g
[2]; [8]
  tissue uptake at 0.5 h: 0.37 ± 0.06 %ID/g
  tissue uptake at 1 h: 0.36 ± 0.03 %ID/g
  tissue uptake at 2 h: 0.23 ± 0.04 %ID/g
  tissue uptake at 4 h: 0.24 ± 0.02 %ID/g
[2]; [9]
  tissue uptake at 0.5 h: 4.71 ± 0.3 %ID/g
  tissue uptake at 1 h: 4.15 ± 0.83 %ID/g
  tissue uptake at 2 h: 2.41 ± 0.35 %ID/g
  tissue uptake at 4 h: 1.9 ± 0.09 %ID/g
[2]; [10]
  tissue uptake at 0.5 h: 4.58 ± 2.16 %ID/g
  tissue uptake at 1 h: 3.74 ± 0.72 %ID/g
  tissue uptake at 2 h: 2.85 ± 1.12 %ID/g
  tissue uptake at 4 h: 1.82 ± 1.11 %ID/g
[2]; [11]
  tissue uptake at 0.5 h: 23.9 ± 8.92 %ID/g
  tissue uptake at 1 h: 37 ± 3.89 %ID/g
  tissue uptake at 2 h: 26.5 ± 4.77 %ID/g
  tissue uptake at 4 h: 22.4 ± 6.23 %ID/g
[2]; [12]
  tissue uptake at 0.5 h: 10 ± 2.51 %ID/g
  tissue uptake at 1 h: 10.5 ± 2.84 %ID/g
  tissue uptake at 2 h: 8.4 ± 0.12 %ID/g
  tissue uptake at 4 h: 8.08 ± 0.87 %ID/g
[2]; [13]
  tissue uptake at 0.5 h: 7.03 ± 1.58 %ID/g
  tissue uptake at 1 h: 5.51 ± 0.97 %ID/g
  tissue uptake at 2 h: 3.67 ± 0.68 %ID/g
  tissue uptake at 4 h: 2.69 ± 0.17 %ID/g
[2]; [14]
  tissue uptake at 0.5 h: 2.4 ± 0.48 %ID/g
  tissue uptake at 1 h: 2.39 ± 0.49 %ID/g
  tissue uptake at 2 h: 2.36 ± 0.14 %ID/g
  tissue uptake at 4 h: 2.36 ± 0.32 %ID/g
[2]; [15]
  tissue uptake at 0.5 h: 4.48 ± 0.72 %ID/g
  tissue uptake at 1 h: 4.01 ± 0.79 %ID/g
  tissue uptake at 2 h: 3.05 ± 0.38 %ID/g
  tissue uptake at 4 h: 3.04 ± 0.09 %ID/g
[2]; [16]
  tissue uptake at 0.5 h: 6.84 ± 0.73 %ID/g
  tissue uptake at 1 h: 6.68 ± 0.95 %ID/g
  tissue uptake at 2 h: 6.18 ± 0.43 %ID/g
  tissue uptake at 4 h: 5.05 ± 0.01 %ID/g
[3]
  tissue uptake at 1 h: 2.05 ± 0.09 %ID/g
[4]
  cellular uptake in MC38 cells compared to NCI-H727 cells: significantly lower
